B1: Far upstream element-binding protein 1, residues 184 to 257; numbered along this chain, Q96AE4 (parent)
chain: GNAVQEIMIPASKAGLVIGKGGETIKQLQERAGVKMVMIQDGPQNTGADKPLRITGDPYKVQQAKEMVLELIRD

± gives the uncertainty stated by the source.

Variants of B1 are the subject of this data set. Briefly: abundance fitness (aPCA) (normalised: wild type 0, dead -1); higher = more abundant; growth selection in yeast, the domain comes from the species named. The conditions noted are these: Homo sapiens.
With GNAVQEIMIPASKAGLMIGKGGETIKQLQERAGVKMVMIQDGPQNTGADKPLRITGDPYKVQQAKEMVLELIRD [V17M], the abundance fitness was -0.08 ± 0.046.

Regarding GNAVQEIMIPASKAGLWIGKGGETIKQLQERAGVKMVMIQDGPQNTGADKPLRITGDPYKVQQAKEMVLELIRD [V17W], the abundance fitness is -0.294 ± 0.036.

In the case of GNAVQEIMIPASKAGLQIGKGGETIKQLQERAGVKMVMIQDGPQNTGADKPLRITGDPYKVQQAKEMVLELIRD [V17Q], the abundance fitness was -0.703 ± 0.05. The result for GNAVQEIMIPASKAGLNIGKGGETIKQLQERAGVKMVMIQDGPQNTGADKPLRITGDPYKVQQAKEMVLELIRD [V17N] reads -0.594 ± 0.073; that for GNAVQEIMIPASKAGLPIGKGGETIKQLQERAGVKMVMIQDGPQNTGADKPLRITGDPYKVQQAKEMVLELIRD [V17P], -0.759 ± 0.046. As to GNAVQEIMIPASKAGLEIGKGGETIKQLQERAGVKMVMIQDGPQNTGADKPLRITGDPYKVQQAKEMVLELIRD [V17E], the abundance fitness was -0.503 ± 0.04. The result for GNAVQEIMIPASKAGLRIGKGGETIKQLQERAGVKMVMIQDGPQNTGADKPLRITGDPYKVQQAKEMVLELIRD [V17R] reads -0.687 ± 0.033. On to GNAVQEIMIPASKAGLHIGKGGETIKQLQERAGVKMVMIQDGPQNTGADKPLRITGDPYKVQQAKEMVLELIRD [V17H], for which the abundance fitness is -0.589 ± 0.063. Under GNAVQEIMIPASKAGLDIGKGGETIKQLQERAGVKMVMIQDGPQNTGADKPLRITGDPYKVQQAKEMVLELIRD [V17D] stands -0.479 ± 0.056; under GNAVQEIMIPASKAGLIIGKGGETIKQLQERAGVKMVMIQDGPQNTGADKPLRITGDPYKVQQAKEMVLELIRD [V17I], -0.06 ± 0.048. The result for GNAVQEIMIPASKAGLSIGKGGETIKQLQERAGVKMVMIQDGPQNTGADKPLRITGDPYKVQQAKEMVLELIRD [V17S] reads -0.505 ± 0.035. The result for GNAVQEIMIPASKAGLCIGKGGETIKQLQERAGVKMVMIQDGPQNTGADKPLRITGDPYKVQQAKEMVLELIRD [V17C] reads -0.272 ± 0.046; that for GNAVQEIMIPASKAGLAIGKGGETIKQLQERAGVKMVMIQDGPQNTGADKPLRITGDPYKVQQAKEMVLELIRD [V17A], -0.427 ± 0.035.

Consider GNAVQEIMIPASKAGLYIGKGGETIKQLQERAGVKMVMIQDGPQNTGADKPLRITGDPYKVQQAKEMVLELIRD [V17Y], for which the abundance fitness was -0.428 ± 0.061. Under GNAVQEIMIPASKAGLGIGKGGETIKQLQERAGVKMVMIQDGPQNTGADKPLRITGDPYKVQQAKEMVLELIRD [V17G] stands -0.599 ± 0.032; under GNAVQEIMIPASKAGLKIGKGGETIKQLQERAGVKMVMIQDGPQNTGADKPLRITGDPYKVQQAKEMVLELIRD [V17K], -0.679 ± 0.052. The result for GNAVQEIMIPASKARLVIGKGGETIKQLQERAGVKMVMIQDGPQNTGADKPLRITGDPYKVQQAKEMVLELIRD [G15R] reads -0.041 ± 0.027; that for GNAVQEIMIPASKAYLVIGKGGETIKQLQERAGVKMVMIQDGPQNTGADKPLRITGDPYKVQQAKEMVLELIRD [G15Y], -0.035 ± 0.048. The result for GNAVQEIMIPASKALLVIGKGGETIKQLQERAGVKMVMIQDGPQNTGADKPLRITGDPYKVQQAKEMVLELIRD [G15L] reads -0.026 ± 0.031. Turning to GNAVQEIMIPASKAELVIGKGGETIKQLQERAGVKMVMIQDGPQNTGADKPLRITGDPYKVQQAKEMVLELIRD [G15E], the abundance fitness was found to be 0.04 ± 0.036.

GNAVQEIMIPASKACLVIGKGGETIKQLQERAGVKMVMIQDGPQNTGADKPLRITGDPYKVQQAKEMVLELIRD [G15C]: the abundance fitness came to 0.127 ± 0.041.

On to GNAVQEIMIPASKAPLVIGKGGETIKQLQERAGVKMVMIQDGPQNTGADKPLRITGDPYKVQQAKEMVLELIRD [G15P], for which the abundance fitness was -0.128 ± 0.034. The result for GNAVQEIMIPASKAILVIGKGGETIKQLQERAGVKMVMIQDGPQNTGADKPLRITGDPYKVQQAKEMVLELIRD [G15I] reads -0.028 ± 0.05; that for GNAVQEIMIPASKASLVIGKGGETIKQLQERAGVKMVMIQDGPQNTGADKPLRITGDPYKVQQAKEMVLELIRD [G15S], -0.04 ± 0.03; that for GNAVQEIMIPASKANLVIGKGGETIKQLQERAGVKMVMIQDGPQNTGADKPLRITGDPYKVQQAKEMVLELIRD [G15N], 0.011 ± 0.053.

Consider GNAVQEIMIPASKAALVIGKGGETIKQLQERAGVKMVMIQDGPQNTGADKPLRITGDPYKVQQAKEMVLELIRD [G15A], for which the abundance fitness is -0.126 ± 0.031. Consider GNAVQEIMIPASKAMLVIGKGGETIKQLQERAGVKMVMIQDGPQNTGADKPLRITGDPYKVQQAKEMVLELIRD [G15M], for which the abundance fitness was determined as 0.042 ± 0.039. Under GNAVQEIMIPASKAVLVIGKGGETIKQLQERAGVKMVMIQDGPQNTGADKPLRITGDPYKVQQAKEMVLELIRD [G15V] stands -0.026 ± 0.03; under GNAVQEIMIPASKADLVIGKGGETIKQLQERAGVKMVMIQDGPQNTGADKPLRITGDPYKVQQAKEMVLELIRD [G15D], -0.031 ± 0.039; under GNAVQEIMIPASKATLVIGKGGETIKQLQERAGVKMVMIQDGPQNTGADKPLRITGDPYKVQQAKEMVLELIRD [G15T], -0.093 ± 0.036. The result for GNAVQEIMIPASKAQLVIGKGGETIKQLQERAGVKMVMIQDGPQNTGADKPLRITGDPYKVQQAKEMVLELIRD [G15Q] reads -0.031 ± 0.039; that for GNAVQEIMIPASKAWLVIGKGGETIKQLQERAGVKMVMIQDGPQNTGADKPLRITGDPYKVQQAKEMVLELIRD [G15W], -0.005 ± 0.033. With GNAVQEIMIPASKAGYVIGKGGETIKQLQERAGVKMVMIQDGPQNTGADKPLRITGDPYKVQQAKEMVLELIRD [L16Y], the abundance fitness is -0.045 ± 0.052. For GNAVQEIMIPASKAGKVIGKGGETIKQLQERAGVKMVMIQDGPQNTGADKPLRITGDPYKVQQAKEMVLELIRD [L16K], the abundance fitness is -0.008 ± 0.036.

As to GNAVQEIMIPASKAGFVIGKGGETIKQLQERAGVKMVMIQDGPQNTGADKPLRITGDPYKVQQAKEMVLELIRD [L16F], the abundance fitness was 0.003 ± 0.051. Under GNAVQEIMIPASKAGDVIGKGGETIKQLQERAGVKMVMIQDGPQNTGADKPLRITGDPYKVQQAKEMVLELIRD [L16D] stands -0.053 ± 0.046; under GNAVQEIMIPASKAGEVIGKGGETIKQLQERAGVKMVMIQDGPQNTGADKPLRITGDPYKVQQAKEMVLELIRD [L16E], -0.06 ± 0.036.

For the origin of these results see the Human Domainome abundance scans (Beltran et al. 2025).
